assay: yeast display, Sf9 membrane polyspecificity reagent, FACS + sequencing; frameworks hold sequencing errors
Method in brief: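 Nanobodies came from a synthetic yeast display library in Saccharomyces cerevisiae BJ5465, induced with galactose for 36–48 hours and stained for 1 hour at 4 °C with 10% biotinylated, detergent-solubilized Sf9 membrane reagent. Cells were enriched on streptavidin microbeads and then FACS-sorted, with low and high (top ~1%) gates set on anti-HA fluorescence for expression and streptavidin fluorescence for reagent binding. Each polyreactivity label reflects the gate a clone came from. Genes were amplified by colony PCR, sequenced by MiSeq 2 × 250 and filtered by CDR length.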

Sequence | polyreactivity (PSR sort gate)
QVQLLESGGGLVQAGGSLRLSCAASGSIFYWNAMGWYIQARGKERELLAAINYSGDSTYDADSVKGAFTISRDNAKNTVYLQMNSLKPEDTAVYYCNFDYWGQGTQVTVSS | low polyreactivity
QVQLLESGGGLVQAGGSLRLSCAASGSTFDDNAMGWYRQAPGKERELVAGISDGDDSTNYADSVKGRFTISRDNAKNTVYLQMNRLKPEDTAVYYCNARYVRTYGVRFGYDYWGQGTQVTVSS | low polyreactivity
QVQLLESGGGLVQAGGSLRLSCAASGSTFDSYEMGWYRQAPGKERELVAGISYSSDRTYYADSVKGRFTISRDNAKNTVYLQMNSLKPEDTAVYYCAKDHTGTVQYPLDYWGQGTQVTVSS | low polyreactivity
QVQLLESGGGLVQAGGSLRLSCAASGSTFKSYAMGWYRQAPGKERELVAAISGRGGSTYYADSVKGRVTISRDNAKNTVYLQMNSLKPEDTAVYYCNALGSQRYDYWGQGTQVTVSS | high polyreactivity
QVQLLESGGGLVQAGGSLRLSCAASGSTFRSYAMGWYRQATGKERELVAAISGRGGNTYYADSVKGRFTISRDNAKNTVYLQMNSLKPEDTAVYYCARKTVYYGSDYWGQGTQVTVSS | high polyreactivity
QVQLLESGGGLVQAGGSLRLSCAASGSTFTKYDMGWYRQAPGKERELVAAIRSGGDTNYADSVKGRFTISLDNAKNTVYLQMNSLNPEDTAVYYLAAARGPTNHTSYPWYEYDYWGQCTQVTVSS | low polyreactivity
QVQLLESGGGLVQAGGSLRLSCAASGSTIVSYDMGWYRQAPGKERELVAAITYDGDSTYYADSVKGRFTISRDNAKNTVYLQMNSLKPEDTAVYYCAAEPGEDLKFRGGFEYWGQGTQVTVSS | low polyreactivity
QVQLLESGGGLVQAGGSLRLSCAASGYTFQIKAMGWYRQAPGKERELVAAITSGGRTYYADSVKGLFTISRDNAKNTVYLQMNSLKPEDTAVYYCNKVPRRGVDYWGQGTQVTVSS | low polyreactivity
QVQLLESGGGLVQAGGSLRLSCAPSGRTFVFNGRGWYRPATAKERELVAAINRSGGSTYYAVSVKGRFTISRDNGKNTVYLQMNSLKPEDTAVYYCLIQHNGLGYWGQGTQVTVSS | low polyreactivity
QVQLLESGGGLVQAGGSLRLSCAPSGSTFGYYAMGWYRPAPGKERELVAAITSGGRTYYADSVKGRFTISRDNAKNTVYLQMISLKPEETAVYYFAAIYRTYNKFDYWGQGTQVTVSS | high polyreactivity
QVQLLESGGGLVQAGGSLRLSCASSGRTFLTNAMGWYRQAPGKERELVAVITDGDTTYADSVKGRFTISRDNAKNTVYLLMNSLKPEDSAVYYCAADENYWSAGYDSWGLGTQVTVSS | low polyreactivity
QVQLLESGGGLVQAGGSLRLSCDASGFTFVAYAMGWYRQAPGKERELVAVISRGGSTYYADSVKGRFTISRDNAKNTVYLQMNSLKPEDTAVYYCAATFIHSYGKFFYWGQGTQVTLSS | low polyreactivity
QVQLLESGGGLVQAGGSLRLSCSASGITFFVYDMGWYRQAPGKERDLVAAITWAGDSTYYADSVKGRFTISRDNAKNTVYLQMNSLKPEDTAVYYCAAQFDVYYSRQPYDYNRSGYWGQGTQVTVSS | low polyreactivity
QVQLLESGGGLVQAGGSLRLSFAASGLTLGAYAMVWYRQAPGKERELVAAITNGGSTDYADSVKGRFTISRDNAKITVYLQMNSLKPEDTAVYYCAKDISRPDRGMDYWGQGTQVTVSS | low polyreactivity
QVQLLESGGGLVQAGGSLRLTCAASGSTFPDYAMGWYRQAPGKEREFVASITWSDGSTYYADSVKGRFTISRDNAKNSVYLQMNRLKQEDTAVYYCNADYVYYYIPVVYEYDYWGQGTQVTVSS | high polyreactivity
QVQLLESGGGLVQAGGTLPLSCAASGRTFKYYAMGWYRQAPGKERELVAGISSTGRTNYADSVKGRFTISRDNAKNTVYLEMNSLKPEDTAVYYCNAERKSFGKFVYWGQGTLVTVSS | high polyreactivity
QVQLLESGGGLVQAGGTLRLSCAASGSTFAKYGMGWYRQAPGKERELVAAISRSGGRTYYADSVKGRFTISRDNAKNTVYLQMNSLKPEDTAVYYCATDGIRLTRHRDYDYWGQGTQVTVSS | low polyreactivity

— the nanobody polyreactivity screen of Harvey et al. (2022)
